Source: US20250179196A1 (Janssen / Centocor, published 2025)
Numbering of substitutions follows the chain as printed.

T1: Recombinant human IL-23 receptor (IL-23R) extracellular domain (ECD) protein (human, UniProt Q5VWK5 24-355)
T1 construct: also called human IL-23R ECD; hu IL-23R ECD
T1 sequence: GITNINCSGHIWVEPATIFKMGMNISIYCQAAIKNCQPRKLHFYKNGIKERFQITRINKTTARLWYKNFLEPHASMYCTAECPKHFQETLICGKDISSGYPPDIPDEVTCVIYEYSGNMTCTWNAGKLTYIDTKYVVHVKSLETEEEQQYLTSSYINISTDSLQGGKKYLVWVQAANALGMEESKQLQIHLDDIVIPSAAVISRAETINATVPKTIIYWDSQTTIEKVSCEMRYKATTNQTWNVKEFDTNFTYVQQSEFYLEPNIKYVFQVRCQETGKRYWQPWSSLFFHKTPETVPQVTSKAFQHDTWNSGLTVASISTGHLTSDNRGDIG

T2: rat IL-23R extracellular domain (ECD) protein (rat)
T2 construct: also called rat IL-23R ECD; F1LX96 amino acids 24-354
T2 chain: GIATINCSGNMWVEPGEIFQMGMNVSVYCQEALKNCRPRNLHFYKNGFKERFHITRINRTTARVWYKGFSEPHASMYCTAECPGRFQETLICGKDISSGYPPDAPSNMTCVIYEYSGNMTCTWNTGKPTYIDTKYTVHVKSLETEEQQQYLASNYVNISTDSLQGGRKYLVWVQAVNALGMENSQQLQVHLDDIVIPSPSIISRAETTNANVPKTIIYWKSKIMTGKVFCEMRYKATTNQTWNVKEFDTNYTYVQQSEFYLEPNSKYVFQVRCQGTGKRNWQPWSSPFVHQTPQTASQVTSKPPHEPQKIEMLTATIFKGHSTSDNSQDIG

B1: I23RB82 (antibody, mouse IgG2a, kappa, V domains shown)
VH: QVQLKESGPGLVAPSQSLSITCTVSGFSLTNYALHWFRQSPGKGLEWLGVIWSDGSTDYNSPFISRLSISKDNSKSQVFFKMNSLQADDTAIYYCARSRSNYGRWYFDVWGAGTTLTVSS
VL: QIVLSQSHKFMSTSVGDRVSITCKASQDVSTAVAWYQQKPGQSPKLLIYSAFYRYTGVPDRFTGSGSGTDFTFTISSVQAEDLAVYYCQQHYSTPYTFGGGTKLEIKR
notes: mouse immunization; mouse IgG2a/kappa
B2: I23RB39 (antibody, mouse IgG2a, kappa, V domains shown)
VH: EVQLQQSGPELVKPGAPVKISCKASGYTFTNYYIHWVKQRPGQGLEWIGYIYPGNGGTAYNQKFKDKATLTADNPSSTAYMQLSSLTSEDSAVYFCARSRGGSRNYFDYWGQGTTLTVSS
VL: B1 VL with Q1D, V3Q, L4M, S5T, T94S, Y96R, G100A, I106L
notes: as for B1
B3: I23RB77 (antibody, mouse IgG2a, kappa, V domains shown)
VH: DVQLQESGPGLVAPSQSLSITCTVSGFSLSRYSVHWVRQPPGKGLEWLGMIWGSGSTDYNSALKSRLSINKDNSKSQVFLKMNSLQTDDTAMYYCARVYYGGSPYAMDYWGQGTTVTVSS
VL: DIVMTQSPASLALSLGQRATISCRASESVDSYGNSFMHWYQQKPGQPPKLLIYLASNLESGVPARFSGSGSRTDFTLTIDPVEADDAAIYYCQQNNEEPNTFGAGTKLEMKR
notes: as for B1
B4: I23RB58 (antibody, mouse IgG2a, kappa, V domains shown)
VH: EVKLVESGGGLVKPGGSLKLSCAASGFSFIIYTMSWVRQTPEKRLEWVAYITSGGGITYYPDSVKGRFTISRDNARNTLYLQMSSLRSEDTAMYYCARHEGDYYDDYYRIGYAMDYWGQGTSVTVSS
VL: B3 VL with S7T, L13V, L54R, V62I, D80N, A87V, I89T, N95S, E98D, N100L
notes: as for B1
B5: I23RB83 (antibody, mouse IgG2a, kappa, V domains shown)
VH: DVQLQESGPGLVAPSQSLSITCTVSGFSLTNYDVHWVRQSPGKGLEWLGVIWSDGSTDYNAAFISRLSFSKDNSKRQVFFKMNSLQPDDTAIYYCARNNYYRYGRNPMDYWGQGTTVTVSS
VL: DIQMTQSPASQSASLGESVTITCLASQTIGSWLAWYQQKPGKSPQLLIYAATSLADGVPSRFSGSGSGTKFSFKISSLQAEDFVSYYCQQLYSSPLTFGGGTKLEIKR
notes: as for B1
B6: I23RB36 (antibody, mouse IgG2a, kappa, V domains shown)
VH: QIQLVQSGAELVKPGASVKLSCTTSGFNIKDTYIHWMKQRPEQGLEWIGRIDPANGNTIYASKFQGKATLTTDTSSNTAYMLLSSLTSGDTAVYYCTRGTSWFAYWGQGTTVTVSS
VL: DIVMTQSPKSMSMSVGERVTLSCKASENVGTSVSWFQQKPEQSPKLLIYGASNRYTGVPDRFTGSGSATDFTLTISSVQAEDLADYHCGQSYSYPRTFGGGTKLEIKR
notes: as for B1
B7: I23RB56 (antibody, mouse IgG2a, kappa, V domains shown)
VH: EVKLVESGGGLVKPGGSLKLSCAASGFTFSSYAMSWVRQTPEKRLEWVAAINSNDGSTYYPDTVKDRFTISRDNAKNTLYLQMSSLRSEDTALYYCARHFLYFSNFYYFDYWGQGTTLTVSS
VL: DIVMTQSPKFLLVSAGDRVTITCKASQSVSNDVAWYQQKPGQSPKLLIYYASNRYTGVPDRFTGSGYGTVFTFTISTVQAEDLAVYFCQQDYSSPFTFGSGTKLEIKR
notes: as for B1
B8: I23RB61 (antibody, mouse IgG2a, kappa, V domains shown)
VH: DVQLQESGAELVKPGASVKLSCKSFDYTFTSFDINWMKQRPGQGLEWIGWIFPGSGTTNYNEKFKGKATLTADKSSSTAYMHLTSLTSEDSAVYFCARRLTGTRYFDVWGTGTTLTVSS
VL: DIQMTQSHKFLSTSVGDRITITCKASQDVITAVAWYQQKSGQSPKLLIYWASTRHTGVPDRFTGSGSGTDYTLTISNVQAEDLALYYCQQHYTTPPTFGAGTKLELKR
notes: as for B1
B9: I23RB30 (antibody, mouse IgG2a, kappa, V domains shown)
VH: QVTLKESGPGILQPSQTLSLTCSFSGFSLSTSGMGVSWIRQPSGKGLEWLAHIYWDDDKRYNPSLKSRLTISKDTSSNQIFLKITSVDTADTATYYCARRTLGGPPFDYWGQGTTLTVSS
VL: DIVLTQSQRFMSTSVGDRVSITCKASQNIRTAVAWYQQKPGQSPKALIYLPSNRHTGVPDRFTGSGSGTDFTLTISNVQSEDLADYFCLQHWNYPLTFGAGTKLELKR
notes: as for B1
B10: I23RB60 (antibody, mouse IgG2a, kappa, V domains shown)
VH: DVQLQESGPELVKPGDSVKMSCEASGYTFTDYYIDWVKQSHGKSLEWIGYIYPNNGGISFNQKFEGKATLTVDKSSSTAYMELHSLTSEDSAVYYCAREKLRGRDYWGQGTTLTVSS
VL: DIVMTQSTSSLSASLGDRVTISCRASQDIRNNLNWYQQKPDGTVKLLIFYSSRLHSGVPSRFSGSGSGTDYSLTISNLEQEDIATYFCQQGHTLPWTFGAGTKLELKR
notes: as for B1
B11: I23RB73 (antibody, mouse IgG2a, kappa, V domains shown)
VH: EVQLQQSGAELVKPGASVKISCKASGYTFTDHAIHWVKQRPEQGLEWIGYISLGNGDIKYSEKFRGKATLTADKTSNTAYMQLNSLTSEDSAVYFCKRSRVLRWTTYWYFDVWGAGTSVTVSS
VL: DIVMTQSHKFMSTSVGDRVSITCKASQDVSTAVAWYQQKPGQSPKLLIYWASTRLTGVPDRFTGSGSGTDYTLTISSVQAEDLALYYCQQYYNTPLTFGAGTKLELKR
notes: as for B1

Molecular target: T1, Recombinant human IL-23 receptor …
Experiment: SPR Biacore 8K, supernatant, analysis 2
In short: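 Kinetics fitted to a 1:1 Langmuir model gave on-rate, off-rate and KD. Human or rat IL-23R ECD flowed over captured mAbs (~150 RU) at 0.8–500 nM, 5-fold dilutions: 3 min binding at 50 μL/min, then 30 min buffer, 25 °C, HBS-P+ plus 100 μg/ml BSA.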

| Kd [nM] | koff [s⁻¹] | kon [M⁻¹ s⁻¹] | Binder |
| --- | --- | --- | --- |
| 34.4 | 0.0136 | 397000 | B1 |
| 14.9 | 0.00716 | 482000 | B2 |
| 18 | 0.01 | 556000 | B3 |
| 22.5 | 0.00523 | 233000 | B4 |
| 0.345 | 5.91e-05 | 172000 | B5 |
| 2.18 | 0.00129 | 592000 | B6 |
| 25.5 | 0.00898 | 352000 | B7 |
| 5.5 | 0.00195 | 355000 | B8 |
| 35.9 | 0.00763 | 212000 | B9 |
| 0.466 | 0.000169 | 362000 | B10 |
| 13.7 | 0.00293 | 213000 | B11 |

Molecular target: T2, rat IL-23R extracellular domain (ECD) …
Experiment: SPR Biacore 8K, supernatant
Protocol: (§1) Affinity by SPR using Biacore 8K. Affinity measurements using Surface Plasmon Resonance (SPR) were performed using a Biacore 8K system (Cytiva). […] Approximately 9000-10000 RU (response units) of mAbs were immobilized. The kinetic experiments were performed at 25° C. in running buffer 1× of (HBS-P+ Buffer 10× (Cytiva #BR100671)+100 μg/ml BSA). To perform kinetic experiments, approximately 150 RU of mAbs were captured followed by injections of human IL-23R or rat IL-23R at concentrations ranging from 0.8 nM to 500 nM (in a 5-fold serial dilution). The association phase was monitored for 3 minutes at 50 μL/min, then followed by 30 minutes of buffer flow (dissociation phase). […] The collected data were processed using Biacore insight Evaluation software (Version 3.0.12.15655). The kinetic analysis of the data was performed using a Langmuir 1:1 binding model. The result for each mAb was reported in the format of Ka (On-rate), Kd (Off-rate) and KD (equilibrium dissociation constant).

| binding result | Kd [nM] | koff [s⁻¹] | kon [M⁻¹ s⁻¹] | Binder |
| --- | --- | --- | --- | --- |
| no binding (tested: 500 nM) |  |  |  | B1 |
| no binding (tested: 500 nM) |  |  |  | B2 |
| no binding (tested: 500 nM) |  |  |  | B3 |
| no binding (tested: 500 nM) |  |  |  | B4 |
| no binding (tested: 500 nM) |  |  |  | B5 |
| no binding (tested: 500 nM) |  |  |  | B6 |
|  | 715 | 0.0642 | 89700 | B7 |
| no binding (tested: 500 nM) |  |  |  | B8 |
|  | 306 | 0.00909 | 29800 | B9 |
| no binding (tested: 500 nM) |  |  |  | B10 |
| no binding (tested: 500 nM) |  |  |  | B11 |

Molecular target: T1, Recombinant human IL-23 receptor …
Experiment: SPR Biacore 8K, supernatant, analysis 1
Protocol: as §1

| Kd [nM] | koff [s⁻¹] | kon [M⁻¹ s⁻¹] | Binder |
| --- | --- | --- | --- |
| 4.67 | 0.00247 | 529000 | B1 |
| 32 | 0.00739 | 231000 | B2 |
| 1.54 | 0.00214 | 1.39e+06 | B3 |
| 16.2 | 0.00532 | 328000 | B4 |
| 0.366 | 0.000119 | 325000 | B5 |
| 13.7 | 0.00118 | 86400 | B6 |
| 68.4 | 0.0115 | 168000 | B7 |
| 22.1 | 0.0101 | 459000 | B8 |
| 46.2 | 0.0101 | 220000 | B9 |
| 0.731 | 0.000218 | 298000 | B10 |
| 11.7 | 0.00378 | 322000 | B11 |
